Like-named read-outs stand apart in the source and are kept apart here.
Assays:
E. coli MAT α protein = E. coli MAT α protein (Escherichia coli, UniProt P0A817); conditions: Ni-NTA agarose, native conditions
Experimental: The MAT II β expression clone, Clone 5, was inoculated into one liter of LB broth containing 25 μg/ml kanamycin and 100 μg/ml ampicillin, then incubated with shaking at 37° C. until an OD600 of 0.5-0.7 was reached. IPTG (Sigma) was added to a final concentration of 1 mM, and the culture was allowed to incubate for an additional 4 hours under the same conditions. […] The first, involved purification of the His-tagged protein under denaturing conditions of 8M urea, and the second involved separation of SDS-PAGE and elution of the β subunit protein from the gel.

MAT II = assay: MAT activity and kinetics in extracts of transfected Cos-1 cells; assay type: biochemical, African green monkey
Experimental: Transfection of Cos-1 cells with pTargeT™/MAT2A or pTargeT™/MAT2B was done using the cationic lipid reagent, Transfast™ (Promega). Preliminary experiments were carried out to optimize the transfection conditions. Typically, 1.5×10^6 cells were plated in 100 mm dish one day prior to transfection. For each plate, […] of vector DNA was applied in the ratio of 1:1 to Transfast™ in a protein-free medium for 2 h. For cells co-transfected with both α2 and β vectors, […] DNA from each was used. For each experiment, one untransfected plate served as a normal control, and a second plate was transfected with the pTargeT™ vector only (mock-transfected cells). After 48 h, cells were harvested by trypsinization with a solution containing 0.05% trypsin and 0.53 mM EDTA in Hank's balanced salt solution (HBSS, from Cellgro). Trypsinization was stopped by the addition of media supplemented with 10% FCS, cells were pelleted, washed three times in 1 ml HBSS, counted, then resuspended in 1× extraction buffer with protease inhibitors (50 mM Tris, pH 7.4, 100 mM NaCl, 5 mM MgCl2, 4 mM dithiothreitol, 0.1 IU/ml aprotinin, 0.5 mM PMSF and […] soybean trypsin inhibitor). Cells were lysed by three cycles of quick freezing and thawing, and the lysate was clarified by centrifugation at 15,000×g for 10 min at 4° C. If not immediately used; cell extracts were stored at −80° C. Protein assays were performed using the bicinchoninic acid reagent (Sigma) following the manufacturer instructions.
MAT activity in cell extracts was assayed as previously described (Kotb, M., and Kredich, N. M. (1985) J. Biol. Chem. 260, 3923-30). […] The concentration of L-Met was varied between […] using ^14C-L-Met (57.9 mCi/mmol) to a concentration of up to […], and supplementary with cold L-Met for higher concentrations.

[1] = MAT assay of recombinant MAT II β subunit protein alone; assay type: biochemical
Experimental: MAT activity was assayed as previously described (22,29,31). The assay contained 5-120 μM L-methionine (L-Met), 5 mM ATP in 50 mM TES buffer, pH 7.4,50 mM KCl, 15 mM MgCl2, 0.3 mM EDTA, and 4 mM DTT. The L-Met concentration was varied as indicated in the kinetic analysis. One unit (U) of MAT activity is defined as the amount of enzyme that catalyzes the formation of 1 nmol of AdoMet in 1 hour.

Sequence of E. coli MAT α protein (Q9NZL9 whole entry): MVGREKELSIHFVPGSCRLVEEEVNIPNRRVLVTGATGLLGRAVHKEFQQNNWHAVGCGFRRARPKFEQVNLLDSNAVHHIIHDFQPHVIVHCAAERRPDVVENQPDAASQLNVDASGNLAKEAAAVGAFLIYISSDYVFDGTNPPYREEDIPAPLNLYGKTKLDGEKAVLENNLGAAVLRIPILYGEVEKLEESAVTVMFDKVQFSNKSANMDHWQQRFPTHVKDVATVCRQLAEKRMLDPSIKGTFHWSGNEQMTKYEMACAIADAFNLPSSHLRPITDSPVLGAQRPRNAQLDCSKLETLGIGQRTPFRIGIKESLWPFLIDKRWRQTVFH
Sequence of E. coli MAT α protein (P0A817 2-384): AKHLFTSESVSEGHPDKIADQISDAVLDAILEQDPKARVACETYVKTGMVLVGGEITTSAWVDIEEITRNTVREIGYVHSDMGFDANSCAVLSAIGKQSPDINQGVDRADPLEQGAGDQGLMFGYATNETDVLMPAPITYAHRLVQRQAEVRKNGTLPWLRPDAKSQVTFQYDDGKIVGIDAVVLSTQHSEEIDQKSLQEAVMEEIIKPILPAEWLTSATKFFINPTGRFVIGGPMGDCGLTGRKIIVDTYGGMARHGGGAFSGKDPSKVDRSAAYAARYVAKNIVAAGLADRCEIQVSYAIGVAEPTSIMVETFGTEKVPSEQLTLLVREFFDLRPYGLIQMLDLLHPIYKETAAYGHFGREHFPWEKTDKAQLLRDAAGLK

B1: MAT II β subunit: recombinant regulatory β subunit of human methionine adenosyltransferase II, 334 amino acids, expressed in E. coli or Cos-1 cells (protein, UniProt Q9NZL9 2-334, looked up)
Methionine …: VGREKELSIHFVPGSCRLVEEEVNIPNRRVLVTGATGLLGRAVHKEFQQNNWHAVGCGFRRARPKFEQVNLLDSNAVHHIIHDFQPHVIVHCAAERRPDVVENQPDAASQLNVDASGNLAKEAAAVGAFLIYISSDYVFDGTNPPYREEDIPAPLNLYGKTKLDGEKAVLENNLGAAVLRIPILYGEVEKLEESAVTVMFDKVQFSNKSANMDHWQQRFPTHVKDVATVCRQLAEKRMLDPSIKGTFHWSGNEQMTKYEMACAIADAFNLPSSHLRPITDSPVLGAQRPRNAQLDCSKLETLGIGQRTPFRIGIKESLWPFLIDKRWRQTVFH
In the case of B1, the “association / co-purification with E. coli MAT α” value (E. coli MAT α protein; listed as recombinant MAT II β subunit protein) is reported as “associated spontaneously”, the “association / co-purification with E. coli MAT α” value (E. coli MAT α protein; listed as recombinant human MAT II β subunit protein) is reported as “co-purifying” and the “effect on the Km for L-Met of the endogenous MAT II” value (MAT II; expression in Cos-1 cells) is reported as “no effect”. The “effect on MAT (specific) activity” value (MAT II; expression in Cos-1 cells, result in words) was “increase”, the Km (MAT II; extracts of Cos-1 cells transfected with β or co-transfected with α2 and β, single kinetic form, read-out: Km for L-Met) was 20 µM and the “increase in MAT activity” value (MAT II; transfected Cos-1 cell extracts compared to untransfected (or mock-transfected) cells) was roughly 2 fold. For the same molecule, the MAT catalytic activity [1] was “no MAT catalytic activity”.

— patent publication US20040259198A1, “Purified and isolated mat II beta subunit nucleic acids and polypeptides and therapeutic and screening methods using same” (priority 1999, published 2004)
